Test results published in patent US20250049970A1, “DLL3 TARGETING PEPTIDES AND CONSTRUCTS THEREOF” (MARIANA ONCOLOGY INC., priority 2023, published 2025).
Bridges are numbered along the chain shown (N, C = ends). [ ]: non-standard residue; d: D form.

T1: DLL3 (target ligand immobilized on a SA sensor chip via streptavidin capture) (Homo sapiens (Human), UniProt Q9NYJ7 27-492, limits assumed)
T1 sequence: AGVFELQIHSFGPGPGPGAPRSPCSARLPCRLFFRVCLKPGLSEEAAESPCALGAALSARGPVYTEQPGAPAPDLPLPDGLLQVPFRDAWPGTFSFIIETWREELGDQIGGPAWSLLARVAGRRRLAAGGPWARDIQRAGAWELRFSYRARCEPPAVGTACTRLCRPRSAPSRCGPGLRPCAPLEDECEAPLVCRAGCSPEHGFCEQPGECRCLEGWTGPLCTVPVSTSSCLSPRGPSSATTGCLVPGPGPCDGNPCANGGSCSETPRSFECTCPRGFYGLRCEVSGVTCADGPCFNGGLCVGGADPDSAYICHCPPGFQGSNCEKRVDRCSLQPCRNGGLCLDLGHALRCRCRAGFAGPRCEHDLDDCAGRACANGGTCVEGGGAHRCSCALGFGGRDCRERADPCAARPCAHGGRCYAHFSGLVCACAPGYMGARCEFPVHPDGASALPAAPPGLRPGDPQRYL


The binders below were run against T1, DLL3 (target ligand immobilized on a SA …) (assay: SPR, Biacore S200, target ligand on SA chip, 25 C, 1:1 fit).
Procedure: Target ligand was immobilized on a SA sensor chip via streptavidin capture. A reference surface was set up for nonspecific binding and refractive index changes. For analysis of the kinetics of interactions, varying concentrations of peptides were injected at a flow rate of 50 μL/minute using running buffer containing 20 mM phosphate buffer with 2.7 mM KCl, 137 mM NaCl and 0.05% Surfactant P20. Sensorgram curves were fitted with 1:1 binding model, and affinity and kinetic parameters were obtained using either Biacore S200 evaluation software 1.1.1 or Biacore Insight evaluation 4.0.

Binder | Kd
Ac-MWQLCEWNNCWPV-NH2 (disulfide 5-10; SMILES CSCC[C@H](NC(C)=O)C(=O)N[C@@H](Cc1c[nH]c2ccccc12)C(=O)N[C@@H](CCC(N)=O)C(=O)N[C@@H](CC(C)C)C(=O)N[C@H]1CSSC[C@@H](C(=O)N[C@@H](Cc2c[nH]c3ccccc23)C(=O)N2CCC[C@H]2C(=O)N[C@H](C(N)=O)C(C)C)NC(=O)[C@H](CC(N)=O)NC(=O)[C@H](CC(N)=O)NC(=O)[C@H](Cc2c[nH]c3ccccc23)NC(=O)[C@H](CCC(=O)O)NC1=O) [SEQ ID NO 74] | 110 nM
Ac-MWTLCDTWDTCFP-NH2 (disulfide 5-11; SMILES CSCC[C@H](NC(C)=O)C(=O)N[C@@H](Cc1c[nH]c2ccccc12)C(=O)N[C@H](C(=O)N[C@@H](CC(C)C)C(=O)N[C@H]1CSSC[C@@H](C(=O)N[C@@H](Cc2ccccc2)C(=O)N2CCC[C@H]2C(N)=O)NC(=O)[C@H]([C@@H](C)O)NC(=O)[C@H](CC(=O)O)NC(=O)[C@H](Cc2c[nH]c3ccccc23)NC(=O)[C@H]([C@@H](C)O)NC(=O)[C@H](CC(=O)O)NC1=O)[C@@H](C)O) [SEQ ID NO 72] | 24 nM
Ac-WTICADWAQCWP-NH2 (disulfide 4-10; SMILES CC[C@H](C)[C@H](NC(=O)[C@@H](NC(=O)[C@H](Cc1c[nH]c2ccccc12)NC(C)=O)[C@@H](C)O)C(=O)N[C@H]1CSSC[C@@H](C(=O)N[C@@H](Cc2c[nH]c3ccccc23)C(=O)N2CCC[C@H]2C(N)=O)NC(=O)[C@H](CCC(N)=O)NC(=O)[C@H](C)NC(=O)[C@H](Cc2c[nH]c3ccccc23)NC(=O)[C@H](CC(=O)O)NC(=O)[C@H](C)NC1=O) [SEQ ID NO 68] | 6.1 nM
Ac-MWTICNNWHDC[dA]P-NH2 (disulfide 5-11; SMILES CC[C@H](C)[C@H](NC(=O)[C@@H](NC(=O)[C@H](Cc1c[nH]c2ccccc12)NC(=O)[C@H](CCSC)NC(C)=O)[C@@H](C)O)C(=O)N[C@H]1CSSC[C@@H](C(=O)N[C@H](C)C(=O)N2CCC[C@H]2C(N)=O)NC(=O)[C@H](CC(=O)O)NC(=O)[C@H](Cc2c[nH]cn2)NC(=O)[C@H](Cc2c[nH]c3ccccc23)NC(=O)[C@H](CC(N)=O)NC(=O)[C@H](CC(N)=O)NC1=O) [SEQ ID NO 84] | 240 nM
Ac-MWAICNNWHDCWP-NH2 (disulfide 5-11; SMILES CC[C@H](C)[C@H](NC(=O)[C@H](C)NC(=O)[C@H](Cc1c[nH]c2ccccc12)NC(=O)[C@H](CCSC)NC(C)=O)C(=O)N[C@H]1CSSC[C@@H](C(=O)N[C@@H](Cc2c[nH]c3ccccc23)C(=O)N2CCC[C@H]2C(N)=O)NC(=O)[C@H](CC(=O)O)NC(=O)[C@H](Cc2c[nH]cn2)NC(=O)[C@H](Cc2c[nH]c3ccccc23)NC(=O)[C@H](CC(N)=O)NC(=O)[C@H](CC(N)=O)NC1=O) [SEQ ID NO 87] | 53 nM
Ac-MWTACNNWHDCWP-NH2 (disulfide 5-11; SMILES CSCC[C@H](NC(C)=O)C(=O)N[C@@H](Cc1c[nH]c2ccccc12)C(=O)N[C@H](C(=O)N[C@@H](C)C(=O)N[C@H]1CSSC[C@@H](C(=O)N[C@@H](Cc2c[nH]c3ccccc23)C(=O)N2CCC[C@H]2C(N)=O)NC(=O)[C@H](CC(=O)O)NC(=O)[C@H](Cc2c[nH]cn2)NC(=O)[C@H](Cc2c[nH]c3ccccc23)NC(=O)[C@H](CC(N)=O)NC(=O)[C@H](CC(N)=O)NC1=O)[C@@H](C)O) [SEQ ID NO 88] | 86 nM
Ac-AWTICNNWHDCWP-NH2 (disulfide 5-11; SMILES CC[C@H](C)[C@H](NC(=O)[C@@H](NC(=O)[C@H](Cc1c[nH]c2ccccc12)NC(=O)[C@H](C)NC(C)=O)[C@@H](C)O)C(=O)N[C@H]1CSSC[C@@H](C(=O)N[C@@H](Cc2c[nH]c3ccccc23)C(=O)N2CCC[C@H]2C(N)=O)NC(=O)[C@H](CC(=O)O)NC(=O)[C@H](Cc2c[nH]cn2)NC(=O)[C@H](Cc2c[nH]c3ccccc23)NC(=O)[C@H](CC(N)=O)NC(=O)[C@H](CC(N)=O)NC1=O) [SEQ ID NO 86] | 7.6 nM
Ac-MWTICANWHDCWP-NH2 (disulfide 5-11; SMILES CC[C@H](C)[C@H](NC(=O)[C@@H](NC(=O)[C@H](Cc1c[nH]c2ccccc12)NC(=O)[C@H](CCSC)NC(C)=O)[C@@H](C)O)C(=O)N[C@H]1CSSC[C@@H](C(=O)N[C@@H](Cc2c[nH]c3ccccc23)C(=O)N2CCC[C@H]2C(N)=O)NC(=O)[C@H](CC(=O)O)NC(=O)[C@H](Cc2c[nH]cn2)NC(=O)[C@H](Cc2c[nH]c3ccccc23)NC(=O)[C@H](CC(N)=O)NC(=O)[C@H](C)NC1=O) [SEQ ID NO 89] | 8.1 nM
Ac-MWHICQEWATCWP-NH2 (disulfide 5-11; SMILES CC[C@H](C)[C@H](NC(=O)[C@H](Cc1c[nH]cn1)NC(=O)[C@H](Cc1c[nH]c2ccccc12)NC(=O)[C@H](CCSC)NC(C)=O)C(=O)N[C@H]1CSSC[C@@H](C(=O)N[C@@H](Cc2c[nH]c3ccccc23)C(=O)N2CCC[C@H]2C(N)=O)NC(=O)[C@H]([C@@H](C)O)NC(=O)[C@H](C)NC(=O)[C@H](Cc2c[nH]c3ccccc23)NC(=O)[C@H](CCC(=O)O)NC(=O)[C@H](CCC(N)=O)NC1=O) [SEQ ID NO 71] | 47 nM
Ac-MWKICSDWQNCWP-NH2 (disulfide 5-11; SMILES CC[C@H](C)[C@H](NC(=O)[C@H](CCCCN)NC(=O)[C@H](Cc1c[nH]c2ccccc12)NC(=O)[C@H](CCSC)NC(C)=O)C(=O)N[C@H]1CSSC[C@@H](C(=O)N[C@@H](Cc2c[nH]c3ccccc23)C(=O)N2CCC[C@H]2C(N)=O)NC(=O)[C@H](CC(N)=O)NC(=O)[C@H](CCC(N)=O)NC(=O)[C@H](Cc2c[nH]c3ccccc23)NC(=O)[C@H](CC(=O)O)NC(=O)[C@H](CO)NC1=O) [SEQ ID NO 70] | 340 nM
Ac-MWVLCEWHECWPG-NH2 (disulfide 5-10; SMILES CSCC[C@H](NC(C)=O)C(=O)N[C@@H](Cc1c[nH]c2ccccc12)C(=O)N[C@H](C(=O)N[C@@H](CC(C)C)C(=O)N[C@H]1CSSC[C@@H](C(=O)N[C@@H](Cc2c[nH]c3ccccc23)C(=O)N2CCC[C@H]2C(=O)NCC(N)=O)NC(=O)[C@H](CCC(=O)O)NC(=O)[C@H](Cc2c[nH]cn2)NC(=O)[C@H](Cc2c[nH]c3ccccc23)NC(=O)[C@H](CCC(=O)O)NC1=O)C(C)C) [SEQ ID NO 75] | 57 nM
Ac-MWTLCDNWQTCWP-NH2 (disulfide 5-11; SMILES CSCC[C@H](NC(C)=O)C(=O)N[C@@H](Cc1c[nH]c2ccccc12)C(=O)N[C@H](C(=O)N[C@@H](CC(C)C)C(=O)N[C@H]1CSSC[C@@H](C(=O)N[C@@H](Cc2c[nH]c3ccccc23)C(=O)N2CCC[C@H]2C(N)=O)NC(=O)[C@H]([C@@H](C)O)NC(=O)[C@H](CCC(N)=O)NC(=O)[C@H](Cc2c[nH]c3ccccc23)NC(=O)[C@H](CC(N)=O)NC(=O)[C@H](CC(=O)O)NC1=O)[C@@H](C)O) [SEQ ID NO 73] | 42 nM
